Test results published in patent US20090004190A1, “Rage Fusion Proteins And Methods Of Use” (priority 2006, published 2009).

Target: Fc receptor on THP-1 cells
Experiment: cell-based or functional assay

human IgG1 (heat aggregated, coated on wells) (antibody)
TNF secreted by THP-1 cells in wells coated with 10 µg/well heat aggregated protein (ELISA, 24 h): > 40 ng/well
